In publication PMC10164722, “Crystal Structure of Mesaconyl-CoA Hydratase from Methylorubrum extorquens CM4” (Journal of Microbiology and Biotechnology, 2023):

Target: the molecule itself
Assay: crystal structure; MeMeaC with malic acid, 1.95 Å, space group P6_(3), one molecule in the asymmetric unit; trimer by crystallographic symmetry (PDBePISA also suggested a trimer)

B1: mesaconyl-CoA hydratase from Methylorubrum extorquens CM4 (enzyme, UniProt C5B1K4 1-348, looked up)
chain: MKTNPGRFFEDFRLGETIRHATPRTVTTGDVALYTALYGPRFAVQSSDAFAKAIGHPASPLDDLLTFHVVFGKTVPDVSLNALANLGYAEGGFHRPVYPGETLSTVSEVIGLKESSNRQTGVVYVRSTGSDASGQTVLSYCRWVLVRKRDPEAKIAEEHVPQLAKVVNPADLAHALPPLDPAAYDNALAGSPHRFADYAVGEKIDHVDGMTVEEAEHQIATRLFQNTAKVHFDAVATKETKFGKRLIYGGHVISLARALSFNGLANAFAIGGINAGRHVAPLFAGDTVYAWSEVLETAELPGRSDIGALRLRTVATKNQSCGAYPDKQGEGYDPSVILDLDYWAFIPR
notes: Mesaconyl-CoA hydratase MeaC (locus Mchl_4075) of Methylorubrum extorquens CM4; subdomains printed as residues 1~147 (MeaC^N), 148~190 (MeaC^Br) and 191~348 (MeaC^C); Surmised: cloning into pET30a by NdeI/XhoI with a reverse primer that has no stop codon would put the vector's His6 tag (after Leu-Glu) at the C-terminus; also called MeMeaC; MeaC; source: E. coli BL21(DE3)-T1R, purified (Ni-NTA, …)
stoichiometry N: 3
